Reference: patent US20210130436A1 (published 2021)

Experiments:
[1] = molecular target: T1, human PD-L1 (full-length, expressed on CHO cells) (human, UniProt Q9NZQ7 19-290); assay: flow cytometry, MFI on CHO/huPD-L1 cells over MFI on Jurkat (CD28) cells, 33.3 nM
T1 construct: also called huPD-L1; CD274

[2] = molecular target: T1, human PD-L1 (full-length, expressed on …); assay: flow cytometry, CHO cells expressing huPD-L1, PE anti-human Fc
[3] = molecular target: T2, CD28 (endogenously expressed on Jurkat/IL2 reporter cells) (human, UniProt P10747 19-220); assay: flow cytometry, Jurkat/IL2 reporter cells (endogenous CD28), PE anti-human Fc
T2 construct: Endogenous CD28 of Jurkat cells; also called human CD28

[4] = molecular target: T2, CD28 (endogenously expressed on …); assay: flow cytometry MFI at 33.3 nM relative to WT CD80 ECD-Fc (R&D), Jurkat cells
[5] = molecular target: T3, human CTLA4 (full-length, expressed on CHO cells) (human, UniProt P16410 36-223); assay: flow cytometry MFI at 33.3 nM relative to WT CD80 ECD-Fc (R&D), CHO/huCTLA4 cells
T3 construct: also called huCTLA4
T3 sequence (P16410 36-223): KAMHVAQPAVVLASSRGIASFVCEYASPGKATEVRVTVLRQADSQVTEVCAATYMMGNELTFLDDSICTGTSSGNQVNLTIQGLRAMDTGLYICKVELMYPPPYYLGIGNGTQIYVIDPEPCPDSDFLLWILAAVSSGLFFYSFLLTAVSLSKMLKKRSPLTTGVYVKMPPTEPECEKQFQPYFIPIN

[6] = molecular target: T1, human PD-L1 (full-length, expressed on …); assay: flow cytometry MFI at 33.3 nM relative to WT CD80 ECD-Fc (R&D), CHO/huPD-L1 cells
[7] = molecular target: T3, human CTLA4 (full-length, expressed on …); assay: flow cytometry, CHO cells expressing huCTLA4, PE anti-human Fc
human CD28 = molecular target: T4, human CD28 (human, UniProt P10747 19-220); assay: flow cytometry, Jurkat/IL2 reporter cells (endogenous CD28), 33.3 nM Fc fusion, PE anti-human Fc
T4 construct: whole, on cells; Jurkat/IL2 reporter cells, which endogenously express CD28

human PD-L1 = molecular target: T5, human PD-L1 (human, UniProt Q9NZQ7 19-290); assay: flow cytometry, CHO cells stably expressing huPD-L1, 33.3 nM Fc fusion, PE anti-human Fc
T5 construct: whole, on cells; CHO cells stably expressing huPD-L1; also called huPD-L1
T5 sequence (Q9NZQ7 19-290): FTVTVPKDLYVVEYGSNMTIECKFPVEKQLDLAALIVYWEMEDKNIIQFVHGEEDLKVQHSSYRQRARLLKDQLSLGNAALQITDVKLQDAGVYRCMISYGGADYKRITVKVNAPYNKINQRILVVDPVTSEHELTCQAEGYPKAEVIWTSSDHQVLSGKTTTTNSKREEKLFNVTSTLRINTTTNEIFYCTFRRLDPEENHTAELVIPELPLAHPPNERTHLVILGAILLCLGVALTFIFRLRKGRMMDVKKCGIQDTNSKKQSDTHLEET

[8] = molecular target: T6, human PD-L1 expressed on CHO cells (human, UniProt Q9NZQ7 19-290); assay: flow cytometry, CHO cells stably expressing PD-L1, Fc fusion at 33.3 nM
T6 construct: whole, on cells; Target on CHO cells stably expressing PD-L1; also called huPD-L1
T6 sequence (Q9NZQ7 19-290): as above

[9] = molecular target: T7, human CTLA4 expressed on CHO cells (human, UniProt P16410 36-223); assay: flow cytometry, CHO cells stably expressing CTLA4, Fc fusion at 33.3 nM
T7 construct: whole, on cells; Target on CHO cells stably expressing CTLA4; also called huCTLA4
T7 sequence (P16410 36-223): as the sequence (P16410 36-223) above

human CTLA-4 = molecular target: T8, human CTLA-4 (human, UniProt P16410 36-223); assay: flow cytometry, CHO cells stably expressing huCTLA-4, 33.3 nM Fc fusion, PE anti-human Fc
T8 construct: whole, on cells; CHO cells stably expressing huCTLA4; also called huCTLA4
T8 sequence (P16410 36-223): as above

T1 sequence (Q9NZQ7 19-290): as the sequence (Q9NZQ7 19-290) above

| Binder | Ratio of PDL1:CD28 [1] | MFI at 33.3 nM [2] | MFI at 33.3 nM [3] | Fold change to WT [4] | Fold change to WT CD80 [5] | Fold change to WT [6] | MFI at 33.3 nM [7] | MFI at 33.3 nM (human CD28) | MFI at 33.3 nM [8] | MFI at 33.3 nM [9] | also measured |
| --- | --- | --- | --- | --- | --- | --- | --- | --- | --- | --- | --- |
| CD80 E35D/M47V/N48K IgV-Fc (Fc fusion, not shown: small tags and cut ends; a dimerising Fc or GST) VIHVTKEVKEVATLSCGHNVSVEELAQTRIYWQKDKKMVLTMMSGDVKIWPEYKNRTIFDITNNLSIVILALRPSDEGTYECVVLKYEKDAFKREHLAEVTLSVKAD | – | – | – | – | – | – | – | – | 4850 MFI | 47400 MFI | – |
| variant CD80 IgV-Fc (inert) A26P/E35D/M47I/V68M/A71G/D90G (Fc fusion, not shown: inert human IgG1 Fc) VIHVTKEVKEVATLSCGHNVSVEELPQTRIYWQKDKKMVLTMMSGDINIWPEYKNRTIFDITNNLSIMILGLRPSDEGTYECVVLKYEKGAFKREHLAEVTLSVKAD | – | – | – | – | – | – | – | 8190 MFI | – | – | MFI at 33.3 nM (human CTLA-4): 19800 MFI |
| CD80 E35D/M47V/N48K/V68M IgV-Fc (Fc fusion, not shown: small tags and cut ends; a dimerising Fc or GST) VIHVTKEVKEVATLSCGHNVSVEELAQTRIYWQKDKKMVLTMMSGDVKIWPEYKNRTIFDITNNLSIMILALRPSDEGTYECVVLKYEKDAFKREHLAEVTLSVKAD | – | – | – | – | – | – | – | – | 23500 MFI | 32900 MFI | – |
| variant CD80 IgV-Fc (inert) H18F/A26P/E35D/M47I/V68M/A71G/D90G (Fc fusion, not shown: inert human IgG1 Fc) VIHVTKEVKEVATLSCGFNVSVEELPQTRIYWQKDKKMVLTMMSGDINIWPEYKNRTIFDITNNLSIMILGLRPSDEGTYECVVLKYEKGAFKREHLAEVTLSVKAD | – | – | – | – | – | – | – | 4800 MFI | – | – | MFI at 33.3 nM (human CTLA-4): 23900 MFI; MFI at 33.3 nM (human PD-L1): 32300 MFI |
| CD80 N48K/V68M/K89N IgV-Fc (Fc fusion, not shown: small tags and cut ends; a dimerising Fc or GST) VIHVTKEVKEVATLSCGHNVSVEELAQTRIYWQKEKKMVLTMMSGDMKIWPEYKNRTIFDITNNLSIMILALRPSDEGTYECVVLKYENDAFKREHLAEVTLSVKAD | – | – | – | – | – | – | – | – | 11500 MFI | 19100 MFI | – |

Continued, in another order:

| Ratio of PDL1:CD28 [1] | MFI at 33.3 nM [2] | MFI at 33.3 nM [3] | Fold change to WT [4] | Fold change to WT CD80 [5] | Fold change to WT [6] | MFI at 33.3 nM [7] | MFI at 33.3 nM (human CD28) | MFI at 33.3 nM [8] | MFI at 33.3 nM [9] | Binder | also measured |
| --- | --- | --- | --- | --- | --- | --- | --- | --- | --- | --- | --- |
| 225 ratio | 60900 MFI | 271 MFI | 0.04 fold | 0.01 fold | 7.67 fold | 1320 MFI | – | – | – | variant CD80 IgV-Fc A26E/Q33L/E35D/M47L (Fc fusion, not shown: a dimerising Fc or GST) VIHVTKEVKEVATLSCGHNVSVEELEQTRIYWLKDKKMVLTMMSGDLNIWPEYKNRTIFDITNNLSIVILALRPSDEGTYECVVLKYEKDAFKREHLAEVTLSVKAD | – |
| – | – | – | – | – | – | – | 6910 MFI | – | – | variant CD80 IgV-Fc (inert) H18Y/A26P/E35D/M47V/V68M/A71G (Fc fusion, not shown: inert human IgG1 Fc) VIHVTKEVKEVATLSCGYNVSVEELPQTRIYWQKDKKMVLTMMSGDVNIWPEYKNRTIFDITNNLSIMILGLRPSDEGTYECVVLKYEKDAFKREHLAEVTLSVKAD | MFI at 33.3 nM (human PD-L1): 51500 MFI |
| 309 ratio | 81500 MFI | 264 MFI | 0.03 fold | 0.01 fold | 10.3 fold | 1280 MFI | – | – | – | variant CD80 IgV-Fc A26E/Q33R/E35D/M47L/L85Q (Fc fusion, not shown: a dimerising Fc or GST) VIHVTKEVKEVATLSCGHNVSVEELEQTRIYWRKDKKMVLTMMSGDLNIWPEYKNRTIFDITNNLSIVILALRPSDEGTYECVVQKYEKDAFKREHLAEVTLSVKAD | – |
| 229 ratio | 62700 MFI | 274 MFI | 0.04 fold | 0.01 fold | 7.89 fold | 1170 MFI | – | – | – | variant CD80 IgV-Fc A26E/Q33L/E35D/M47L/L85Q (Fc fusion, not shown: a dimerising Fc or GST) VIHVTKEVKEVATLSCGHNVSVEELEQTRIYWLKDKKMVLTMMSGDLNIWPEYKNRTIFDITNNLSIVILALRPSDEGTYECVVQKYEKDAFKREHLAEVTLSVKAD | – |
| 238 ratio | 64500 MFI | 272 MFI | 0.04 fold | 1.38 fold | 8.12 fold | 247000 MFI | – | – | – | variant CD80 IgV-Fc E35D/M47I/E77A/L85Q/R94W (Fc fusion, not shown: a dimerising Fc or GST) VIHVTKEVKEVATLSCGHNVSVEELAQTRIYWQKDKKMVLTMMSGDINIWPEYKNRTIFDITNNLSIVILALRPSDAGTYECVVQKYEKDAFKWEHLAEVTLSVKAD | – |
